Literature values as cited in paper PMC3377446.

Target: PDL1 (Homo sapiens) (UniProt Q9NZQ7)
Sequence of UniProt Q9NZQ7 (Q9NZQ7 19-238): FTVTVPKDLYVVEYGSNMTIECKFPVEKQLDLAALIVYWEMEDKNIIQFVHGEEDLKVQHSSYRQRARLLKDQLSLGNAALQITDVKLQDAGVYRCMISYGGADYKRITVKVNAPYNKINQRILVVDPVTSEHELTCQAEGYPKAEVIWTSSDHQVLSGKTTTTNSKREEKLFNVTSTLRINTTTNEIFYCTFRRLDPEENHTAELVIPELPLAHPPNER

- Kd: 1400 nM
Substance: CD80 (from UniProt P33681)
